Patent publication US20100184658A1 (published 2010)

Experiments:
Test in all cases: cell-based or functional assay
[1] = target: T1, BRSK1 (SAD1) (UniProt Q8TDC3 1-778, limits assumed)
T1 sequence (looked up): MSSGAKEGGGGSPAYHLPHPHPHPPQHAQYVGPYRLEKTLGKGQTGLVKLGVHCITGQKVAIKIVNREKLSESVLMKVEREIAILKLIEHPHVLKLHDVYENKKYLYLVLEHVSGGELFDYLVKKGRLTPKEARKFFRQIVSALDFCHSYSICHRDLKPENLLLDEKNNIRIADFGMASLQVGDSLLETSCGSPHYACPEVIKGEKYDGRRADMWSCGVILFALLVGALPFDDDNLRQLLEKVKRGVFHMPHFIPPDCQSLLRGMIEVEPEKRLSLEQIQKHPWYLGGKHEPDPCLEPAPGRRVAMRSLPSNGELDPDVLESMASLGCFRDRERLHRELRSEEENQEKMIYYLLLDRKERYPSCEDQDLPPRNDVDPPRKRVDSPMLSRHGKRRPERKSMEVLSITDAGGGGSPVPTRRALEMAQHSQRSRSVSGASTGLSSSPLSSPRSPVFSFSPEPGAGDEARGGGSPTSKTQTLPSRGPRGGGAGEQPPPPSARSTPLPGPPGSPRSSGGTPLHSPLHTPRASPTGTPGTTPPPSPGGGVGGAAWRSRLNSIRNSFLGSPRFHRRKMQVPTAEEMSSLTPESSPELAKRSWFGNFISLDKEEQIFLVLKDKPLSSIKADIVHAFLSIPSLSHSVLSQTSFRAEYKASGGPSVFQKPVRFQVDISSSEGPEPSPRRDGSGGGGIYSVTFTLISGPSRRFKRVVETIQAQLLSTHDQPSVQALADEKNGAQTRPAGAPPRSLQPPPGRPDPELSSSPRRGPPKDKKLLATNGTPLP

[2] = target: T2, CHEK1 (CHK1) CHK1 checkpoint homolog (UniProt O14757 1-476, limits assumed)
T2 sequence (looked up): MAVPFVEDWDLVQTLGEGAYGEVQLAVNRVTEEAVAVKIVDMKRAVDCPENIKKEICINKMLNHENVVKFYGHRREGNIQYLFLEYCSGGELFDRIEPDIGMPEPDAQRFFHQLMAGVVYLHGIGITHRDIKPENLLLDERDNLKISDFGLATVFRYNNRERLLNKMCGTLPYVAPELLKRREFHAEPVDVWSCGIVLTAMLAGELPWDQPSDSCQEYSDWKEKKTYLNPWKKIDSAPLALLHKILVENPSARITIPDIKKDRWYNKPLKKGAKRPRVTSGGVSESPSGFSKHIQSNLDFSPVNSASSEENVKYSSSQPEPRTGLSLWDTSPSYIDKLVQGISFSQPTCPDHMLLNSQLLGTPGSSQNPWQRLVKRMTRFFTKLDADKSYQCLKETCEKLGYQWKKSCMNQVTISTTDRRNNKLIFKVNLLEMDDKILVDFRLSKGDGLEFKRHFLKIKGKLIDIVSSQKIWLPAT

[3] = target: T3, PHKG2 Phosphorylase kinase, gamma 2 (UniProt P15735 1-406, limits assumed)
T3 sequence (looked up): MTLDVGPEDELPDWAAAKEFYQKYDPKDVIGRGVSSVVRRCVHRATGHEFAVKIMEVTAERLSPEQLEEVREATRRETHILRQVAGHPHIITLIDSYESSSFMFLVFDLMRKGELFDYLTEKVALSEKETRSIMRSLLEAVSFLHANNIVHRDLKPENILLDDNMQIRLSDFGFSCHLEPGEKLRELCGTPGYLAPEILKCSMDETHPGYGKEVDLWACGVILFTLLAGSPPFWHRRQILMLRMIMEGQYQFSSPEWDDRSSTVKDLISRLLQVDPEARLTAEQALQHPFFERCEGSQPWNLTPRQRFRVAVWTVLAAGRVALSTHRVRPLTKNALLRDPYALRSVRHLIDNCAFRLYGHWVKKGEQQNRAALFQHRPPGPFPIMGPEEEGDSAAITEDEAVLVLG

[4] = target: T4, PRKD2 (PKD2) Protein kinase D2 (UniProt Q9BZL6 1-878, limits assumed)
T4 sequence (looked up): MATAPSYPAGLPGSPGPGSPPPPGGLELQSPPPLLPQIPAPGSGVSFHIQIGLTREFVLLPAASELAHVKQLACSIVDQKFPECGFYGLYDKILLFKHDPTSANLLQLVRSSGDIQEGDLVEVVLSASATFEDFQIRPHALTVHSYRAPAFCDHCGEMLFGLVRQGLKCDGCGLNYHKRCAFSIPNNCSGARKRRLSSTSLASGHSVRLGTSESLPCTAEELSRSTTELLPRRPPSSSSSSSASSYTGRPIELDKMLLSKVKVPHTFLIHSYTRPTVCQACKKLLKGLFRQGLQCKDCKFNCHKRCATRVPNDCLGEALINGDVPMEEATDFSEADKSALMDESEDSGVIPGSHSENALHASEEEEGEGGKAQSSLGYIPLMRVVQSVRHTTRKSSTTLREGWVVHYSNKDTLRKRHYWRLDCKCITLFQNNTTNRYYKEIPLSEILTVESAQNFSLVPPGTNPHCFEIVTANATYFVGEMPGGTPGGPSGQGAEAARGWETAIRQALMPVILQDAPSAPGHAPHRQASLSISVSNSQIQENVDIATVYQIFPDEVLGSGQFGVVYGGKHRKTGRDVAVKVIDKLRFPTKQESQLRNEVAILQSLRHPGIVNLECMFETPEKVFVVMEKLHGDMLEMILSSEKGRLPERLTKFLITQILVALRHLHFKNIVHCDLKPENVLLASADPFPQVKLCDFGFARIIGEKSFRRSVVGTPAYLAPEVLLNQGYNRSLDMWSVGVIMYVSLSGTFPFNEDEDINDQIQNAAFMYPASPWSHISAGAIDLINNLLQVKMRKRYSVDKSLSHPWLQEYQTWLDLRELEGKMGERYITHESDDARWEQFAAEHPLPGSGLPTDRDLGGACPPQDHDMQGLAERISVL

[5] = target: NEK7 (UniProt Q8TDX7 1-302, limits assumed)
Chain of NEK7 (Q8TDX7 whole entry): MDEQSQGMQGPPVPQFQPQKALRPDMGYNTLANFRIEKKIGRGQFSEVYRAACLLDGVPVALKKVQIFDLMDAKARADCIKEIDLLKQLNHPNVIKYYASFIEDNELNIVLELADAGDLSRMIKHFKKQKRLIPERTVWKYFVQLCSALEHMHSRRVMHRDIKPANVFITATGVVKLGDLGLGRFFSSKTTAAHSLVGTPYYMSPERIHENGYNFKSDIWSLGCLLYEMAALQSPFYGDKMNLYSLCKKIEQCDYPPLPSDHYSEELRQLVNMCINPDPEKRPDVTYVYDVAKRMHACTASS

[6] = target: T5, TAOK2 (TAO1) TAO kinase 2 (UniProt Q9UL54 1-314, limits assumed)
T5 sequence (looked up): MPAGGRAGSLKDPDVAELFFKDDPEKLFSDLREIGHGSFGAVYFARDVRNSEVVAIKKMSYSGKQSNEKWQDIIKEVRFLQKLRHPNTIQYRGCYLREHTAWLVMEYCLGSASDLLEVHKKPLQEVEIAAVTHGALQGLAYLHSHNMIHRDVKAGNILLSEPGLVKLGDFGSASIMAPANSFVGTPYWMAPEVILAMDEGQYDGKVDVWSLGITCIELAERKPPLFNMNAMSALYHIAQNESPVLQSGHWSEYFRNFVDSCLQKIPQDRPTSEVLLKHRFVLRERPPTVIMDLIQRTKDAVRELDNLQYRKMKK

## SGRPPMIVWFNRPFLIAVSHTHGQTILFMAKVINPVGA [D3 peptide]
[1]
  % Inhibition mean: 83.5%
[2]
  % Inhibition mean: 74%
[3]
  % Inhibition mean: 87%
[4]
  % Inhibition mean: 92.5%
[5]
  % Inhibition mean: 73.8%
[6]
  % Inhibition mean: 100%
